Measurements from publication PMC5058624.

Molecular target: recombinant LukG monomer (TCH1516) (Staphylococcus aureus strain TCH1516 (USA300 CA-MRSA))
Test: BLI

recombinant LukG monomer (TCH1516) (Staphylococcus aureus strain TCH1516 (USA300 CA-MRSA)), sequence (P21224 30-338 limits assumed): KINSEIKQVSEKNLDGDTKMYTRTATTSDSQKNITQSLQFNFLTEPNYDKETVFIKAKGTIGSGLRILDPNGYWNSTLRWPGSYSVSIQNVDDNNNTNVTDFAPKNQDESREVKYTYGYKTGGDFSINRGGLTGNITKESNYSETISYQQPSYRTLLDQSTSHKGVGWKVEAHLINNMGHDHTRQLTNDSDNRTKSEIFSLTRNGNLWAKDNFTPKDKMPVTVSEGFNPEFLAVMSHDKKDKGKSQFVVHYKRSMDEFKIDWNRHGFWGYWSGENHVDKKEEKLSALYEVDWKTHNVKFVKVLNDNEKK

## recombinant LukH monomer (TCH1516) (natural protein)
  stoichiometry N (molar ratio of the 2 monomers): 1
